The chains are these.
B1: XENP25768 (E151Q) (protein)
chain 1: EPKSSDKTHTCPPCPAPPVAGPSVFLFPPKPKDTLMISRTPEVTCVVVDVKHEDPEVKFNWYVDGVEVHNAKTKPREEEYNSTYRVVSVLTVLHQDWLNGKEYKCKVSNKALPAPIEKTISKAKGQPREPQVYTLPPSREEMTKNQVSLTCDVSGFYPSDIAVEWESDGQPENNYKTTPPVLDSDGSFFLYSKLTVDKSRWEQGDVFSCSVMHEALHNHYTQKSLSLSPGK
chain 2: SPGQGTQSENSCTHFPGNLPNMLRDLRDAFSRVKTFFQMKDQLDNLLLKESLLEDFKGYLGCQALSEMIQFYLEEVMPQAENQDPDIKAHVNSLGENLKTLRLRLRRCHRFLPCENGGGSGGKSKAVEQVKNAFNKLQEKGIYKAMSEFDIFINYIQAYMTMKIRNEPKSSDKTHTCPPCPAPPVAGPSVFLFPPKPKDTLMISRTPEVTCVVVDVKHEDPEVKFNWYVDGVEVHNAKTKPREEQYNSTYRVVSVLTVLHQDWLNGKEYKCKVSNKALPAPIEKTISKAKGQPREPQVYTLPPSREQMTKNQVKLTCLVKGFYPSDIAVEWESNGQPENNYKTTPPVLDSDGSFFLYSKLTVDKSRWQQGNVFSCSVMHEALHNHYTQKSLSLSPGK
B2: XENP25757 (D41N) (protein)
chain 1: B1 chain 1
chain 2: B1 chain 2 with D41N, Q157E
B3: XENP25755 (Q38E) (protein)
chain 1: B1 chain 1
chain 2: B1 chain 2 with Q38E, Q157E
B4: XENP25767 (D144N) (protein)
chain 1: B1 chain 1
chain 2: B1 chain 2 with D150N, Q157E

Changes are numbered by the printed parent chain. Names and notes keep the numbering of the source.

Broadly, the Kd is a measure of binding affinity in units of concentration. The low end stands for a tighter complex, the high end for a looser complex.

The assay concerns the target T1, IL10R1-Fc (human, UniProt Q13651 22-235).
T1 chain: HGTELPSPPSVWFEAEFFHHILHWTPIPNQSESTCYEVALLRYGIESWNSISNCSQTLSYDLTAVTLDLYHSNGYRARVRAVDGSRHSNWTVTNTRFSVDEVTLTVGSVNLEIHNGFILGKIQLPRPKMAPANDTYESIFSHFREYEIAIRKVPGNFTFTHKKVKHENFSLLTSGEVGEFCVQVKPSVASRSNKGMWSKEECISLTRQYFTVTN
Briefly: BLI; marked *. (In general: In BLI a coated tip is dipped into the sample, and binding shifts an interference pattern.)
Regarding B1, binding was characterised by a dissociation constant (Kd) of 12.4 nM.
With B2, the Kd was determined as 12.4 nM. This lies in the double-digit nanomolar range.
In the case of B3, the equilibrium dissociation constant (Kd) was determined as 6.13 nM.
As for B4, the figure is 23.8 nM.

The record behind these values is patent publication US20210171596A1 (published 2021).
